Assay: yeast display, Sf9 membrane polyspecificity reagent, FACS + sequencing; frameworks hold sequencing errors
Method in brief: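 Polyreactivity labels are assigned by the sorting gate from which each nanobody was recovered. The gates were low and high (top ~1%), set on anti-HA fluorescence for expression and streptavidin fluorescence for reagent binding. Before sorting, galactose-induced (36–48 hours) yeast display cells were stained for 1 hour at 4 °C with 10% biotinylated, detergent-solubilized Sf9 membrane reagent.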

Row | Sequence | polyreactivity (PSR sort gate)
1 | QVQLVESGGGLVQAGGSLRLSCAASGFTFPIYAMGWSRQAPGKEWELVAAISKGGARTYYADSVKGRFTISRDNAKNTVYLQMNSLNPEDTAVYYCAALGPGGWYDYWGQGTQVTVSS | high polyreactivity
2 | QVQLVESGGGLVQAGGSLRLSCAASGFTFPLYAMGWYRQAPGKERELVASISSRGGSTYYADSVKGRFTISRDNAKNTVYLQMNSLKPEDTAVYYCARSTSRYYYWGQGTQVTVSS | high polyreactivity
3 | QVQLVESGGGLVQAGGSLRLSCAASGFTFPLYAMGWYRQAPGKETELVATISSSGSTYYADSVKGRFTISRDNAKNTVYLQMNSLKPEDTAVYYCIAAIQSYEGSGRYFRFDYWGQGTQVTVSS | low polyreactivity
4 | QVQLVESGGGLVQAGGSLRLSCAASGFTFPRNTMGWYRQAPGKERELVAVISRSGGRSYYADSVKGRFTISRDNAKNTVYLQMNSLKPEDTAVYYCAADTSVRFDYWGQGTQVTVSS | high polyreactivity
5 | QVQLVESGGGLVQAGGSLRLSCAASGFTFPRYAMGWYRQAPGKERELVAVITRRGGSTYYADSVKGRFTISRDNAKNTVYLQMNSLKPEDTAVYYCAARQYSYNGGYGYWGQGTQVTVSS | high polyreactivity
6 | QVQLVESGGGLVQAGGSLRLSCAASGFTFPRYAMVWYRQAPGKERELVAAINRGGSTYYADSVKGRFTISRDNAKNTVYLQMNSLKPEDTAVYYCARARPVDTVGYVTVSGDYEFDYWGQGTQVTVSS | low polyreactivity
7 | QVQLVESGGGLVQAGGSLRLSCAASGFTFPSNAMGWYRQAPGKERELVAAISSTDSTNYADSVKGRFTISRDNAKNTVYLQMNSLKPEDTAVFYCNADRDDDYDYWGQGTQVTVSS | low polyreactivity
8 | QVQLVESGGGLVQAGGSLRLSCAASGFTFPSYAMGWYRQAPGKERELVAVISRRGGSTYYADSVKGRFTISRDNAKNTVYLQMNSLKPEDTAVYYCNAPYYVFITFDYWGQGTQVTVSS | high polyreactivity
9 | QVQLVESGGGLVQAGGSLRLSCAASGFTFPSYPMGWYRQAPGKETELVAVISWGGTSTYYADSVKGRFTISRDNAKNTVYLQMNSLKPEDTAVYYCNRPSRYASTSRGYGYWGQGTQVTVSS | high polyreactivity
10 | QVQLVESGGGLVQAGGSLRLSCAASGFTFPVNAMGWYRQAPGKERELVAAITKRGGGTYYADSVKGRFTISRDNAKNTVYLQMNSLKPEDTAVYYCAARSFWPYYGGDYDYWGQGTQVTVSS | high polyreactivity
11 | QVQLVESGGGLVQAGGSLRLSCAASGFTFPVYTMGWYRQAPGKERELVAAISTSGAGTYYADSVKGRFTISRDNAKNTVYLQMNSLKPEDTAVYYCAAYKRGRPEMYYWGQGTQVTVSS | high polyreactivity
12 | QVQLVESGGGLVQAGGSLRLSCAASGFTFPYYAKGWYRQAPGKERELVAASTYSGDSTDYADSVKGRFTISRDNAKNTVYLQMNSLKPEDTAVYYCNVTPDCAVTDDYWGQGTQVTVSS | low polyreactivity
13 | QVQLVESGGGLVQAGGSLRLSCAASGFTFPYYAMGWYREAPGKERELVAAISFSGGRTYYADSVKGRFTISRDNAKNTVYLQMNSLKPEDTAVYYCAAAKTYYRYNYWGQGTQVSVSS | high polyreactivity
14 | QVQLVESGGGLVQAGGSLRLSCAASGFTFPYYAMGWYRQAPGKERELVAAISRNGGSTYYADSVKGRFTISRDNAKNTVYLQMNSLKPEDTAVYYCAARYRYWGGSGFKGFDYWGQGTQVTVSS | high polyreactivity
15 | QVQLVESGGGLVQAGGSLRLSCAASGFTFPYYAMGWYRQAPGKERELVAAITYSGDSTYYADSVKGRFTISRDNAKNTVYLQMNSLKPEDTAVYYCNVTPDWAVTDDYWGQGTQVTVSS | low polyreactivity
16 | QVQLVESGGGLVQAGGSLRLSCAASGFTFQGNVMGWYRQAPGKERELVAVITSGGSTYYADSVKGRFTISRDNAKNTVYLQMNSLKPEDTAVYYCAKLYNSYTWKYGYWGQGTQVTVSS | high polyreactivity
17 | QVQLVESGGGLVQAGGSLRLSCAASGFTFQGYVMGWYRQAPGKERELVARITNDGSTTYADSVKGRFTISRDNAKNTVYLQMNTLKPEDTAVYYCARPYRFWRYYGMYYWGQGTQVTVSS | high polyreactivity
18 | QVQLVESGGGLVQAGGSLRLSCAASGFTFQPYAMGWYRQAPGKERELVAAINWSSGRTYYADSVKGRFTISRDNAKNTVYLEMNCLKPEDTAVYYCNTRSTLGYYWGQGTQVTVSS | high polyreactivity
19 | QVQLVESGGGLVQAGGSLRLSCAASGFTFQTYAMGWYRQAPGKERELVATINSSGGGTYYADSVKGRFTISRDNAKNTVYLQMNSLKPEDTAVDYCAADAVWFVGQAFDISDSTTYGYWGQGTQVTVSS | low polyreactivity
20 | QVQLVESGGGLVQAGGSLRLSCAASGFTFQVYAMGWYRQAPGKERELVADITESGDSTYYADSVKGRFTISRDNAKNTVYLQMNSLKPEDTAVYYCAADGGWFWSLFYTFAFDYWGQGTQVTVSS | low polyreactivity
21 | QVQLVESGGGLVQAGGSLRLSCAASGFTFQYNAMGWYRQAPGKERELVAAITWTGTSTYAYSVKGRFTISRDNAKNTVYLQLNSVKPDDTGVYYCAARYYAPRWFRYDYWGQGTQVTVSS | low polyreactivity
22 | QVQLVESGGGLVQAGGSLRLSCAASGFTFQYYAMGWYRQAPGKERELVAAISRGGSTNYADSVKGRFTISRDNAKNTVYLQMNSLKPEDTAVYYCARLGWTYLWGYDSWGQGTQVTVSS | high polyreactivity

Row | Sequence | polyreactivity (PSR sort gate)
23 | QVQLVESGGGLVQAGGSLRLSCAASGFTFRANAMGWYRQAPGKERELVAAISQSGGRTNYADSVKGRFTISRDNAKNTVYLQMNSLKPEDTAVYYCAAPYSAKELYYRMDYWGQGTQVTVSS | high polyreactivity
24 | QVQLVESGGGLVQAGGSLRLSCAASGFTFRANGMGWYRQAPGKERELVATITSGGTTNYADSVKGRFTISRDNAKNSVYLQMNSLIPEDTAVYYCAKRFGPAYFRLYDYWGQGTQVTVSS | low polyreactivity
25 | QVQLVESGGGLVQAGGSLRLSCAASGFTFRANGMGWYRQAPGKETELVATITSGGTTNYADSVKGRFTISRDNAKNTVYLQMNSLKPEDTAVYYCAKRFGPAYFRLYDYWGQGTQVTVSS | low polyreactivity
26 | QVQLVESGGGLVQAGGSLRLSCAASGFTFRAYAMGWYRQAPGKEREFVAAISYSGGSTYYADSVKGRFTISRDNAKNTVDLQMNSLKPEDTAVYYCATVLYSVPRYNYWGQGTQVTVSS | high polyreactivity
27 | QVQLVESGGGLVQAGGSLRLSCAASGFTFRDNAMGWYRQAPGKEWELVAAITWDGGSTYYADSVKGRFTISRDNAKNTVYLQMNSLKPEDTAVYYCAASRYYPRYFKRYYYWGQGTQVTVSS | high polyreactivity
28 | QVQLVESGGGLVQAGGSLRLSCAASGFTFRFYAMGWYRQAPGKERELVAAISRRGGTTYYADSVKGRFTISRDNAKNTVYLQMNSLKPEDTAVYYCNKDWTYEHGYWGQGTQVTVSS | high polyreactivity
29 | QVQLVESGGGLVQAGGSLRLSCAASGFTFRGNAMGWYRQAPGKERELVATISRGGNTNYADSVKGRFTISRDNAKNTVYLLMNSLKPEDTAVYYFAAVSYIRSKVSYNYWGNGTQVTVSS | low polyreactivity
30 | QVQLVESGGGLVQAGGSLRLSCAASGFTFRGNAMGWYRQAPVKERELVAAITSSDDSTYYADSVKGRFTISRDLSKNTVYLQMNSLKPEDTAVYYCAAVANGYWTYEYWGQGTQVTVSS | low polyreactivity
31 | QVQLVESGGGLVQAGGSLRLSCAASGFTFRGYAMGWYRQAPGKERELVAAISKRGGSTYYADSVKGRFTISRDNAKNTVYLQMNSLKPEDTAVYYCNADYYIVGPPYAPTREDYWGQGTQVTVSS | high polyreactivity
32 | QVQLVESGGGLVQAGGSLRLSCAASGFTFRGYAMGWYRQAPGKERELVAAISWRGGSTYYADSVKGRFTISRDNAKNTVYLQMNSLKPEDTAVYYCAARYGRSYFGYYYWGQGTQVTVSS | high polyreactivity
33 | QVQLVESGGGLVQAGGSLRLSCAASGFTFRGYAMGWYRQAPGKERELVAVINTDGSTNYADSVKGRFTISRDNAKNTVYLQMNSLKPEDTAVYYCNAVRSSIGSDNDYWGQGTQVTVSS | low polyreactivity
34 | QVQLVESGGGLVQAGGSLRLSCAASGFTFRIYAMGWYRQAPGKERELVAAISWAGGSTFYADSVKGRFTISRDNAKNTVYLQMNSLKPEDTAVYYCAADYGYFEYDYWGQGTQVTVSS | low polyreactivity
35 | QVQLVESGGGLVQAGGSLRLSCAASGFTFRKNAMGWYRQAPGKERELVAAISSGTSTYYADSVKGRFTISRDNAKNTVYLQMNSLKPEDTAVYYCAAARYRTDDYWGLGTQVTVSS | high polyreactivity
36 | QVQLVESGGGLVQAGGSLRLSCAASGFTFRKYAMGWYRQAPGKERELVAAISSSGTSTYYADSVKGRFTISRDNAKNTVYLQMNSLKPEDTAVYYCAADRYYWGRYTLNYWGQGTQVTVSS | low polyreactivity
37 | QVQLVESGGGLVQAGGSLRLSCAASGFTFRNYAMGWYRQAPGKERELVAAISKRGGNTYYADSVKGRFTISRDNAKNTVYLQLYSLKREDTAVYYCAADYQFSQDVWHFGYWGLGTQVTVSS | high polyreactivity
38 | QVQLVESGGGLVQAGGSLRLSCAASGFTFRNYAMGWYRQAPGKERELVAAISKRGGNTYYADSVKGRFTISRDNAKNTVYLQMNSLKPEDTAVYYCAAQRYTGQGSGYGYWGQGTQVTVSS | high polyreactivity
39 | QVQLVESGGGLVQAGGSLRLSCAASGFTFRNYAMGWYRQAPGKERELVAAISKRGGNTYYADSVKGRFTISRDNAKNTVYLQMNSLKPEDTAVYYCARKYFRTSNLYGYWGQGTQVTVSS | high polyreactivity
40 | QVQLVESGGGLVQAGGSLRLSCAASGFTFRNYAMGWYRQAPGKERELVAAISKSGGSTYYADSVKGRFTISRDNAKNTVYFQMNSLKPEDSAVYYCATVYLYVYGFEYYYWGQGTQVTLSS | high polyreactivity
41 | QVQLVESGGGLVQAGGSLRLSCAASGFTFRRNAMGWYLQAPGKERELVARISSGGSTNYADSVKGRFTISRDNAKNTVYLQMNSLKPEDSAVYYCATGKGPYPYRQRYGYWGQGTKVTVSS | high polyreactivity
42 | QVQLVESGGGLVQAGGSLRLSCAASGFTFRRNAMGWYRQAPGKERELVAAISSGGGTYYADSVKGRFTISRDNAKNTLYLQMNSLKPEETAVYYCNAAGQVRKYGYWGQGTEVTVSS | high polyreactivity
43 | QVQLVESGGGLVQAGGSLRLSCAASGFTFRRNAMRWYRQAPGKEWELVAAINFRDGSTYYADSLKGRFTISRDNAMIHVYLQMHSLKPEDSAVYYRAAVYYVRDRYDYWGQGTQETVSS | high polyreactivity

Source: the nanobody polyreactivity screen of Harvey et al. (2022)
